Data published in article PMC6704107.

Sequence of AAVR (Q8IZA0 whole entry): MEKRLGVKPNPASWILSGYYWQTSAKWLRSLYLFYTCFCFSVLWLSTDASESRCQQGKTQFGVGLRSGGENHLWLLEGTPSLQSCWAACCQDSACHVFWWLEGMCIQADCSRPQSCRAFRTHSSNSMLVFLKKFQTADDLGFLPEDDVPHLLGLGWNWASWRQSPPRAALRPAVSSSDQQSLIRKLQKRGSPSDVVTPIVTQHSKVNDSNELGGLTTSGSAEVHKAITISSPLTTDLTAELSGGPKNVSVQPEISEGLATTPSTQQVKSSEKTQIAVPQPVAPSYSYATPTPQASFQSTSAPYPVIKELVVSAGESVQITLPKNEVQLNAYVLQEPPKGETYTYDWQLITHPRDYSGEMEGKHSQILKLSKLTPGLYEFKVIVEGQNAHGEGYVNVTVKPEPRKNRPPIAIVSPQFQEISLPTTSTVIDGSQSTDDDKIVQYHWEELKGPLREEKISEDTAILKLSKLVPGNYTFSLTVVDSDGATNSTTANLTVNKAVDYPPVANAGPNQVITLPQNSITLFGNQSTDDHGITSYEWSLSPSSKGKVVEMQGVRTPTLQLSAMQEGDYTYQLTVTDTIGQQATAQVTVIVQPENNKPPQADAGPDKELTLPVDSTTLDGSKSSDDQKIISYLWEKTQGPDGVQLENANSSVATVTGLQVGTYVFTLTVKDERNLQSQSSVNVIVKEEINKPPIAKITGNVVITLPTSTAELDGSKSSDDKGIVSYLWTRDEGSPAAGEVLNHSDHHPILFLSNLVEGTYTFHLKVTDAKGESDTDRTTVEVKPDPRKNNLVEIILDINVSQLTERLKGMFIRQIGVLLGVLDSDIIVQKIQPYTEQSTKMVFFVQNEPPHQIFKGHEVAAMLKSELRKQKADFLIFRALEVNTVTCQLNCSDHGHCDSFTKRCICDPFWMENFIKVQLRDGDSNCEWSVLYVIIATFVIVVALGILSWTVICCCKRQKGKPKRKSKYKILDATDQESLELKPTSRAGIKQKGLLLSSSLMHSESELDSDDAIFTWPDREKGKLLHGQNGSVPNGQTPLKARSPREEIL

Molecular target: Adeno-associated virus 1 (AAV1) particle, wild-type capsid (adeno-associated virus 1 (AAV1)) (UniProt Q9WBP8)
Assay: SPR; Biacore T200; AAV1 or AAV5 particles immobilised on a CM5 chip by amide coupling; wt or mutated AAVR flowed over; 30 μl/min, 25 °C, PBS
Details: not given
In the case of “AAVR PKD1-5 K464A (from UniProt Q8IZA0-1 1-1049) (receptor)”, the Kd is reported as 1.32 nM.
“Adeno-associated virus receptor (AAVR), wild-type, PKD1-5 domains (from UniProt Q8IZA0-1 1-1049)” showed a Kd of 13.9 nM.

Molecular target: Adeno-associated virus 5 (AAV5) particle, wild-type capsid (adeno-associated virus 5 (AAV5)) (UniProt Q9YIJ1)
Assay: as above
Details: not given
“AAVR PKD1-5 T397A (from UniProt Q8IZA0-1 1-1049) (receptor)” showed a fold decrease of binding affinity against wt AAVR of 100 fold.
With “AAVR PKD1-5 K399A (from UniProt Q8IZA0-1 1-1049) (receptor)” the Kd was 71900 nM.
With “AAVR PKD1-5 D354A (from UniProt Q8IZA0-1 1-1049) (receptor)” the fold decrease of binding affinity against wt AAVR was 100 fold.
In the case of “AAVR PKD1-5 I349A (from UniProt Q8IZA0-1 1-1049) (receptor)”, the Kd is reported as 7 nM.
Substance “AAVR PKD1-5 S356A (from UniProt Q8IZA0-1 1-1049) (receptor)” has a fold decrease of binding affinity against wt AAVR of 100 fold.
Work on “Adeno-associated virus receptor (AAVR), wild-type, PKD1-5 domains (from UniProt Q8IZA0-1 1-1049)” yielded a Kd of 287 nM.

Molecular target: Adeno-associated virus receptor (AAVR), wild-type, PKD1-5 domains (UniProt Q8IZA0)
Assay: not given
Details: not given
For “AAV5 particle with capsid mutation Q532A (from UniProt Q9YIJ1 1-724) (complex)”, the transduction of HEK293T cells (endogenous AAVR) by the mutated AAV5-GFP, functional titer against wt AAV5 was 50 % of wt AAV5.
With “AAV5 particle with capsid mutation Y542A (from UniProt Q9YIJ1 1-724) (complex)” the transduction of HEK293T cells (endogenous AAVR) by the mutated AAV5-GFP, functional titer against wt AAV5 was 15 % of wt AAV5.
For “AAV5 particle with capsid mutation E708A (from UniProt Q9YIJ1 1-724) (complex)”, the transduction of HEK293T cells (endogenous AAVR) by the mutated AAV5-GFP, functional titer against wt AAV5 was 50 % of wt AAV5.

Molecular target: recombinant AAV1 particles (AAV1 capsid) (adeno-associated virus 1) (UniProt Q9WBP8)
Assay: SPR; Biacore T200; AAV1 or AAV5 particles immobilised on a CM5 chip by amide coupling (sodium acetate pH 4.5); wt or mutated AAVR flowed over at 30 ul/min, 25 C, PBS; triplicate experiments, mean with standard error
Details: not given
Substance “AAVR PKD1-5 D354A (from UniProt Q8IZA0-1 1-1049) (domain or fragment)” has a Kd of 17.4 nM.
In the case of “AAVR PKD1-5 S356A (from UniProt Q8IZA0-1 1-1049) (domain or fragment)”, the Kd is reported as 12.2 nM.
With “AAVR PKD1-5 T350A (from UniProt Q8IZA0-1 1-1049) (domain or fragment)” the Kd was 14.2 nM.
Substance “AAVR PKD1-5 T397A (from UniProt Q8IZA0-1 1-1049) (domain or fragment)” has a Kd of 17.7 nM.
“AAVR PKD1-5 E378A (from UniProt Q8IZA0-1 1-1049) (domain or fragment)” showed a Kd of 19.9 nM.
“AAVR PKD1-5 R353A (from UniProt Q8IZA0-1 1-1049) (domain or fragment)” showed a Kd of 20.5 nM.
Work on “AAVR PKD1-5 I349A (from UniProt Q8IZA0-1 1-1049) (domain or fragment)” yielded a Kd of 18.5 nM.
With “AAVR PKD1-5 L376A (from UniProt Q8IZA0-1 1-1049) (domain or fragment)” the Kd was 16.7 nM.
Work on “wild-type AAVR PKD1-5 domains with a C-terminal His-tag (from UniProt Q8IZA0-1 1-1049) (domain or fragment)” yielded a Kd of 16.2 nM.
For “AAVR PKD1-5 K399A (from UniProt Q8IZA0-1 1-1049) (domain or fragment)”, the Kd was 17.5 nM.

Molecular target: recombinant AAV5 particles (AAV5 capsid) (adeno-associated virus 5) (UniProt Q9YIJ1)
Assay: as above
Details: not given
In the case of “AAVR PKD1-5 Y442A (from UniProt Q8IZA0-1 1-1049) (domain or fragment)”, the Kd is reported as 269 nM.
For “AAVR PKD1-5 K464A (from UniProt Q8IZA0-1 1-1049) (domain or fragment)”, the Kd was 265 nM.
In the case of “AAVR PKD1-5 S431A (from UniProt Q8IZA0-1 1-1049) (domain or fragment)”, the Kd is reported as 244 nM.
“AAVR PKD1-5 D436A (from UniProt Q8IZA0-1 1-1049) (domain or fragment)” gave a Kd of 295 nM.
“AAVR PKD1-5 D429A (from UniProt Q8IZA0-1 1-1049) (domain or fragment)” gave a Kd of 243 nM.
“AAVR PKD1-5 S425A (from UniProt Q8IZA0-1 1-1049) (domain or fragment)” showed a Kd of 329 nM.
For “AAVR PKD1-5 T434A (from UniProt Q8IZA0-1 1-1049) (domain or fragment)”, the Kd was 289 nM.
For “AAVR PKD1-5 D437A (from UniProt Q8IZA0-1 1-1049) (domain or fragment)”, the Kd was 252 nM.
For “AAVR PKD1-5 K438A (from UniProt Q8IZA0-1 1-1049) (domain or fragment)”, the Kd was 270 nM.
In the case of “AAVR PKD1-5 V427A (from UniProt Q8IZA0-1 1-1049) (domain or fragment)”, the Kd is reported as 306 nM.
“AAVR PKD1-5 S433A (from UniProt Q8IZA0-1 1-1049) (domain or fragment)” gave a Kd of 284 nM.
For “AAVR PKD1-5 D435A (from UniProt Q8IZA0-1 1-1049) (domain or fragment)”, the Kd was 234 nM.
Work on “AAVR PKD1-5 T426A (from UniProt Q8IZA0-1 1-1049) (domain or fragment)” yielded a Kd of 311 nM.

Molecular target: AAV2 capsid (Adeno-associated virus 2) (UniProt P03135)
Assay: not given
Details: cited from earlier work
For AAVR (from UniProt Q8IZA0), the Kd is listed as 57 nM.

Molecular target: Adeno-associated virus 1 (AAV1) particle, wild-type capsid (adeno-associated virus 1 (AAV1)) (UniProt Q9WBP8)
Assay: not given
Details: not given
Work on “AAVR PKD1-5 T434A (from UniProt Q8IZA0-1 1-1049) (receptor)” yielded an AAV1-mCherry transduction of AAVR-silenced HEK293T cells expressing AAVR with this mutation (pcDNA3.1(+)-AAVR) (% of AAV1 infection) of 70.
“AAVR PKD1-5 D435A (from UniProt Q8IZA0-1 1-1049) (receptor)” showed an AAV1-mCherry transduction of AAVR-silenced HEK293T cells expressing AAVR with this mutation (pcDNA3.1(+)-AAVR) (% of AAV1 infection) of 70.
